Target: murine GPRC5D (murine) (UniProt Q9JIL6)
Test: FACS, murine GPRC5D cells

murine GPRC5D (murine), sequence (Q9JIL6 whole entry): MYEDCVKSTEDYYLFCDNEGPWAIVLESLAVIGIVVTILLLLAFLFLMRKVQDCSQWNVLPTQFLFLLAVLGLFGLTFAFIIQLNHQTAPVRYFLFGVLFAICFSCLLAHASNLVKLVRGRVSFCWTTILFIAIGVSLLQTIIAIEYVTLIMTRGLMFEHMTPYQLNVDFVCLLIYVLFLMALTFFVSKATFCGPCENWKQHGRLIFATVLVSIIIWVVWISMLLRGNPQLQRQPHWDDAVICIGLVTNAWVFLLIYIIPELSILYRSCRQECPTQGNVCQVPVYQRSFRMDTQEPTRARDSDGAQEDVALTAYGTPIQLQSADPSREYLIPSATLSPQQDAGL

MFI: 481
B1: GCDB72 (bispecific antibody, IgG4, V domains shown)
VH 1: EVQLVESGGGLVQPGGSLRLSCAASGFTFNTYAMNWVRQAPGKGLEWVARIRSKYNNYATYYAASVKGRFTISRDDSKNSLYLQMNSLKTEDTAVYYCARHGNFGNSYVSWFAYWGQGTLVTVSS
VL 1: QTVVTQEPSLTVSPGGTVTLTCRSSTGAVTTSNYANWVQQKPGQAPRGLIGGTNKRAPGTPARFSGSLLGGKAALTLSGVQPEDEAEYYCALWYSNLWVFGGGTKLTVL
VH 2: QVQLVQSGAEVKKPGASVKVSCKASGYSFTGYTMNWVRQAPGQGLEWMGLINPYNSDTNYAQKLQGRVTMTTDTSTSTAYMELRSLRSDDTAVYYCARVALRVALDYWGQGTLVTVSS
VL 2: DIQMTQSPSSLSASVGDRVTITCKASQNVATHVGWYQQKPGKAPKRLIYSASYRYSGVPSRFSGSGSGTEFTLTISNLQPEDFATYYCQQYNRYPYTFGQGTKLEIK

— patent publication US20230227548A1
